{"source": "paper PMC8262886", "about": "“The Breadth and Molecular Basis of Hcp-Driven Type VI Secretion System Effector Delivery” (mBio, 2021)", "proteins": {"B1": {"name": "Hcp1-His (natural protein)", "chain": "MAVDMFIKIGDVKGESKDKTHAEEIDVLAWSWGMSQSGSMHMGGGGGAGKVNVQDLSFTKYIDKSTPNLMMACSSGKHYPQAKLTIRKAGGENQVEYLIITLKEVLVSSVSTGGSGGEDRLTENVTLNFAQVQVDYQPQKADGAKDGGPVKYGWNIRQNVQA", "notes": "Hcp1 of Pseudomonas aeruginosa, the Hcp of the H1-T6SS; also called His-tagged version of Hcp1; source: E. coli BL21(λDE3), from pACYCDuet-1; coexpressed with an effector, in lysate, copurified (Ni-NTA, SEC); also purified alone (Ni-NTA, SEC); not shown: His, C-terminal, kept"}}, "biological_target": "the molecule itself", "assay": "negative-stain electron microscopy; purified Hcp1-His diluted to 0.01 mg/ml, 2% uranyl acetate, 2D class averages with top and side views"}
{"protein": "B1", "values": [{"measurement": "binding result", "value": "binds"}]}
